Data as given in the supplement of paper PMC10567573.

B1: RSPH3 (parent)
chain: LELQRQREARKRALARKQAQEQLR

Variants of: B1
Assay: protein stability index of a GFP-peptide fusion (GPS, HEK-293T) (PSI 1-6); higher = more stable
Conditions: c terminus: a fixed tail appended
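Further: lentivirally expressed fusions sorted by FACS into six bins by GFP to DsRed ratio, PSI derived from sequencing read proportions per bin multiplied by bin number.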

Protein stability index of substitutions, site by site:
Q6: S 3.76; E 4.46; I 2.98; G 4.55; W 4.26; D 4.05; L 3.33; R 3.41; A 4.14; V 3.37; Y 3.71; H 2.96; T 3.87; F 3.35; N 3.73; M 2.92; K 4.63; P 3.64; C 3.17
R10: A 4.57; D 4.38; G 4.26; C 3.43; E 4.08; F 3.52
Q4: D 3.96; I 2.95; M 2.32; R 4.02; S 4.27; C 3.52; G 3.41; T 4.06; Y 3.03; A 3.17; H 4.2; W 3.43; V 3.43; K 3.55; L 3.22; N 3.76; E 4.3; F 3.12; P 3.51
L3: D 4.14; C 3.12; M 3.6; I 3.74; R 3.54; G 4.43; Q 3.9; S 4.14; F 3.81; T 4.35; N 3.86; W 3.52; V 4.29; H 4.42; P 4.18; E 5.04; A 4.14; K 4.17; Y 3.89
A9: P 4; K 3.68; C 4.05; M 3.84; D 3.63; W 2.86; V 3.71; L 3.47; T 3.31; E 3.85; H 4.07; Q 3.32; I 3.39; N 3.45; R 4.11; G 4.04; S 4.01; F 2.73; Y 3.71
E2: D 3.91; L 2.6; R 3.57; M 2.92; S 3.56; T 3.15; I 2.34; N 3.69; W 2.59; V 2.79; C 3.13; Y 2.52; P 3.58; H 3; G 2.95; A 3.1; Q 3.93; F 2.56; K 4.11
L1: G 4.14; K 3.78; D 4.08; M 4.24; N 4.27; F 3.22; T 3.34; C 4.05; H 3.96; W 2.71; V 3.64; P 4.45; A 3.16; E 4.26; I 3.29; S 3.85; R 4.4; Q 3.82; Y 3.76
R5: E 3.68; D 4.27; K 4.25; F 3.91; I 3.77; N 3.72; Q 4.32; M 4.03; Y 4.19; L 3.25; S 4.16; P 3.89; V 4.36; W 4.02; C 4.09; H 4.21; G 4.34; T 4.17; A 5.05
R7: K 3.56; G 4.52; M 3.52; W 3.46; T 4.43; L 4.2; P 3.71; E 4.31; H 4.29; F 4.1; V 4.02; D 4.49; I 3.25; Y 3.85; S 4.36; A 3.61; Q 4.01; C 3.87; N 4.08
E8: G 3.66; A 3.99; T 4.06; R 4.26; Q 3.71; L 2.98; D 3.81; Y 3.46; W 3
